Measured values as given in patent publication US6358732.

System: CDF (CDE-binding factor)
Experiment: cell_activity
Conditions: transient transfection NIH3T3, luciferase; indirect

Substance: cdc25C promoter CDE-CHR region
- activity (fold growing/G0): 17.5
